From publication PMC6581795, “Phosphorylation of FANCD2 Inhibits the FANCD2/FANCI Complex and Suppresses the Fanconi Anemia Pathway in the Absence of DNA Damage”

How the values were obtained:
[1] = target: FANCD2 WT;FANCI (Homo sapiens;Homo sapiens?, UniProt Q9BXW9;Q9NVI1 1-1451;1-1328, |); assay: EMSA; untreated; EMSA: 1 nM DNA, 25 mM Tris-HCl pH 7.5, 100 mM NaCl, 1 mM EDTA, 6% glycerol, 1 mM DTT, room temperature 1 h; 4% PAGE 0.4x TBE at 4 C; details: protein: recombinant;recombinant; copies: 1;1
[2] = target: FANCD2-6A;FANCI (Homo sapiens;Homo sapiens?, UniProt Q9BXW9;Q9NVI1 1-1451;1-1328, S882A;T884A;S886A;S891A;T896A;S898A|); assay: EMSA; untreated; similar to WT; EMSA: 1 nM DNA, 25 mM Tris-HCl pH 7.5, 100 mM NaCl, 1 mM EDTA, 6% glycerol, 1 mM DTT, room temperature 1 h; 4% PAGE 0.4x TBE at 4 C; details: protein: recombinant;recombinant; copies: 1;1
Chain of FANCD2-6A;FANCI (Q9BXW9 whole entry S882A/T884A/S886A/S891A/T896A/S898A, chain 1 of 2): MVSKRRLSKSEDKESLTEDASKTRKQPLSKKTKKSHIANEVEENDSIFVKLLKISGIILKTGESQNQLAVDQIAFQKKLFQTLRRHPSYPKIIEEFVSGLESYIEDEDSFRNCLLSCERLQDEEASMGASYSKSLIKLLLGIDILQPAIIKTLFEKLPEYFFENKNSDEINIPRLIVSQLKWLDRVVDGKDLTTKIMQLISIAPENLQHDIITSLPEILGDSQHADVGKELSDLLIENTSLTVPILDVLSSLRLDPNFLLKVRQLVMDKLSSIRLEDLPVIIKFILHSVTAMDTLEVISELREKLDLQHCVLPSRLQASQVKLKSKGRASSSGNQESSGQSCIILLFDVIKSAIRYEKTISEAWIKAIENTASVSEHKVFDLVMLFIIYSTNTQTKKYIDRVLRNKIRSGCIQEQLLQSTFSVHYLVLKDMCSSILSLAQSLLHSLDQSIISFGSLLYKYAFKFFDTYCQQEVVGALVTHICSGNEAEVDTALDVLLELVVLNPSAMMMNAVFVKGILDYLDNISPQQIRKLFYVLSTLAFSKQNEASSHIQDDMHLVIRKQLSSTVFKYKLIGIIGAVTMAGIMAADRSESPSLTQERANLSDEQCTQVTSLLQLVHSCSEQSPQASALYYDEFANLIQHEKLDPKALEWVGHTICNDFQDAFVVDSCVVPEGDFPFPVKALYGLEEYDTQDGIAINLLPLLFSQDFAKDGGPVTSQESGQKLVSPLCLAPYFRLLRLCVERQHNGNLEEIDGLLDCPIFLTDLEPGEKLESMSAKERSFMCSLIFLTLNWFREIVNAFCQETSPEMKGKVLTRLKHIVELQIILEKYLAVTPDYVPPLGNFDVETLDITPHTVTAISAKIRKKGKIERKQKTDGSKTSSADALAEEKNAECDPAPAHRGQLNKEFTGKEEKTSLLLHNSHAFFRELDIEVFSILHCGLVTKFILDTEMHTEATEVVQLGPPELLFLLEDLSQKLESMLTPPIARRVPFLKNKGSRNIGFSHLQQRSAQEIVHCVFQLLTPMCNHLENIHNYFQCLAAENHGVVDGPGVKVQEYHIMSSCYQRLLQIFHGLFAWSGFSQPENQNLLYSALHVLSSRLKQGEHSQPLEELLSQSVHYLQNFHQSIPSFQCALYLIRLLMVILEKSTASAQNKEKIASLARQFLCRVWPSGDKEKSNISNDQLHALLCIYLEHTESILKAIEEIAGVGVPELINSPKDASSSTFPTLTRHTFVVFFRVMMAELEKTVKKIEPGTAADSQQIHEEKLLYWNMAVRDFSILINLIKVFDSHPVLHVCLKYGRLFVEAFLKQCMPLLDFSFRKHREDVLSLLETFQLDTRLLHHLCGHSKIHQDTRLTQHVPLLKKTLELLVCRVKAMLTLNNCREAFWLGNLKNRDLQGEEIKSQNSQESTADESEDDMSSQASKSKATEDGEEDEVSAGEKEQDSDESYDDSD
Chain of FANCD2-6A;FANCI (Q9NVI1 whole entry, stated change not applied, chain 2 of 2): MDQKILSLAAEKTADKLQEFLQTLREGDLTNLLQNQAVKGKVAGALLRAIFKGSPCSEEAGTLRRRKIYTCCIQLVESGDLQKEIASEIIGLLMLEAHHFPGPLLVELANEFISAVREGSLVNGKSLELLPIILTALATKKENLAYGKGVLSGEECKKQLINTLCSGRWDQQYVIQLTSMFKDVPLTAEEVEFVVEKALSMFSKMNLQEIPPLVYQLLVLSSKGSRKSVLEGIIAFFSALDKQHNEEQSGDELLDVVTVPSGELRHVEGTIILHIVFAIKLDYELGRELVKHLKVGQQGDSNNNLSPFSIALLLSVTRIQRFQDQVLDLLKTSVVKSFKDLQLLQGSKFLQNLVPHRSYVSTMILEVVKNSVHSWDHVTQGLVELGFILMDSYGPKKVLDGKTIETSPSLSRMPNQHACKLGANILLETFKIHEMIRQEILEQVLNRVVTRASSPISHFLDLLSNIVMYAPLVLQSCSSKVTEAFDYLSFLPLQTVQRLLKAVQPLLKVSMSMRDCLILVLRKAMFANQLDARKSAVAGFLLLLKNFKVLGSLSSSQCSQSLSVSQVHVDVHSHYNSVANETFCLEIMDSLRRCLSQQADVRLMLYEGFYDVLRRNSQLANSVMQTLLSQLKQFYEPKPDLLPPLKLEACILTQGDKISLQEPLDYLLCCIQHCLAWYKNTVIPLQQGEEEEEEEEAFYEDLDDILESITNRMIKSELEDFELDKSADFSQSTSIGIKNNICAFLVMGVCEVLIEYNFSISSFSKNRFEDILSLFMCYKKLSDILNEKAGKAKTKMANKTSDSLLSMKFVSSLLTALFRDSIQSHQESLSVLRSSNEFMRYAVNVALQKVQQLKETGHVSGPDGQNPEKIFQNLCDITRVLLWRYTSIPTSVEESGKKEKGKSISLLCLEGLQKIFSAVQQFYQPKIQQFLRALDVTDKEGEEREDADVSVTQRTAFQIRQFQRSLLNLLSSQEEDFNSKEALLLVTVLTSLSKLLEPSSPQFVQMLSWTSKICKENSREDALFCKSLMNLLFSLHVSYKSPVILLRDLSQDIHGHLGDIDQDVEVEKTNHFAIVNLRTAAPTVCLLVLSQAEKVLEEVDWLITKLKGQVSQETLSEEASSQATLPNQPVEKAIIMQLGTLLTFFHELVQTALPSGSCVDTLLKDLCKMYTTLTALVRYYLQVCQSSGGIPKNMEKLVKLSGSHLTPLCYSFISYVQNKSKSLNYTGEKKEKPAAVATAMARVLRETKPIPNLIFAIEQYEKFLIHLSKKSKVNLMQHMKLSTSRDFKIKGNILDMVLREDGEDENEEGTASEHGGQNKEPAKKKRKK

Chain of FANCD2 WT;FANCI (Q9BXW9 whole entry, chain 1 of 2): as the sequence (Q9BXW9 whole entry S882A/T884A/S886A/S891A/T896A/S898A, chain 1 of 2) above, with A882S, A884T, A886S, A891S, A896T, A898S counted along it
Chain of FANCD2 WT;FANCI (Q9NVI1 whole entry, chain 2 of 2): as the sequence (Q9NVI1 whole entry, stated change not applied, chain 2 of 2) above

B1: ICL14 Y-shaped DNA (mixed)
DNA 1: CATTGTGAATTCGCCTCTCTGTCTAGCCGAAGCTCGAAACGATCTTGTGC
DNA 2: GTCCATCAAAGTTCGACTGTGCGGCTAGACAGAGAGGCGAATTCACAATG
binding result [1]: binds | binding result [2]: binds
